Blank lines part the entries; values can stand above or below the molecule they belong to.
Key:
[1] = target: hCD40 (as used in SPR) (human) (UniProt P25942); assay: SPR
[2] = target: hCD40 expressed on Jurkat cells (human, UniProt P25942); assay: cell-based or functional assay
Sequence of hCD40 expressed on Jurkat cells (P25942 21-277): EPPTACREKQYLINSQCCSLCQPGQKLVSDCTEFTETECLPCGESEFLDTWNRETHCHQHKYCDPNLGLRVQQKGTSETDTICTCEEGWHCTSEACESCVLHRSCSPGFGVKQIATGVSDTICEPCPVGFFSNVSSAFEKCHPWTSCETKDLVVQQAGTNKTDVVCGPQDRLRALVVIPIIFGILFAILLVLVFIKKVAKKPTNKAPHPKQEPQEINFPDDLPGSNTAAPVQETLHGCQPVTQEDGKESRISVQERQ

Sequence of hCD40 (as used in SPR) (human) (P25942 21-277): as above

Kd [1]: 1.97 nM
koff [1]: 0.000164 s⁻¹
Molecule: ChiLob7/4 hIgG2 wild type (from UniProt P01859)

EC50 of NF-κB activation (percentage of GFP+ cells, flow cytometry, 24 h) in NF-κB/Jurkat/GFP reporter cells expressing hCD40 [2]: 4.59 ng/mL
B1: ChiLob7/4 hIgG2 C232S κC214S (cross-over) (antibody, V domains shown)
VH: EVQLQQSGPDLVKPGASVKISCKTSGYTFTEYIMHWVKQSHGKSLEWIGGIIPNNGGTSYNQKFKDKATMTVDKSSSTGYMELRSLTSEDSAVYYCTRREVYGRNYYALDYWGQGTLVTVSS
VL: DIQMTQTTSSLSASLGDRVTITCSASQGINNYLNWYQQKPDGTVKLLIYYTSSLHSGVPSRFSGSGSGTDYSLTISNLEPEDIATYYCQQYSNLPYTFGGGTKLEIK

EC50 of NF-κB activation (percentage of GFP+ cells, flow cytometry, 24 h) in NF-κB/Jurkat/GFP reporter cells expressing hCD40 [2]: 1.55 ng/mL
B2: ChiLob7/4 hIgG2 C232S + T222C κE123C + κC214S (cross-over + T222C κE123C) (antibody, V domains shown)
VH: B1 VH
VL: B1 VL

EC50 of NF-κB activation (percentage of GFP+ cells, flow cytometry, 24 h) in NF-κB/Jurkat/GFP reporter cells expressing hCD40 [2]: 1.55 ng/mL
B3: ChiLob7/4 hIgG2 C232S + K228C κC214S (cross-over + K228C) (antibody, V domains shown)
VH: B1 VH
VL: B1 VL
